The chains are these.
B1: Ad11 (fiber knob) (other)
chain: LWTGVNPTEANCQIMNSSESNDCKLILTLVKTGALVTAFVYVIGVSNNFNMLTTHRNINFTAELFFDSTGNLLTRLSSLKTPLNHKSGQNMATGAITNAKGFMPSTTAYPFNDNSREKENYIYGTCYYTASDRTAFPIDISVMLNRRAINDETSYCIRITWSWNTGDAPEVQTSATTLVTSPFTFYYIREDD
notes: also called B7
B2: Mutated Ad35 Knob A8: Ile192Val Ile256Val (other)
chain: LWTGINPPPNCQIVENTNTNDGKLTLVLVKNGGLVNGYVSLVGVSDTVNQMFTQKTANVQLRLYFDSSGNLLTEESDLKIPLKNKSSTATSETVASSKAFMPSTTAYPFNTTTRDSENYIHGVCYYMTSYDRSLFPLNISIMLNSRMISSNVAYAIQFEWNLNASESPESNIATLTTSPFFFSYITEDDN
B3: wtAd35(207Asp) knob (other)
chain: B2 chain with V59I, E74D, V123I
notes: also called B2

The values that follow come from patent US20250369013A1 (ENSOMA, published 2025).

Residue numbers refer to the chain shown, from its start.

The assay concerns the target T1, CD46 (UniProt P15529 35-343).
T1 construct: The form used in the Kd measurement is not described
T1 sequence: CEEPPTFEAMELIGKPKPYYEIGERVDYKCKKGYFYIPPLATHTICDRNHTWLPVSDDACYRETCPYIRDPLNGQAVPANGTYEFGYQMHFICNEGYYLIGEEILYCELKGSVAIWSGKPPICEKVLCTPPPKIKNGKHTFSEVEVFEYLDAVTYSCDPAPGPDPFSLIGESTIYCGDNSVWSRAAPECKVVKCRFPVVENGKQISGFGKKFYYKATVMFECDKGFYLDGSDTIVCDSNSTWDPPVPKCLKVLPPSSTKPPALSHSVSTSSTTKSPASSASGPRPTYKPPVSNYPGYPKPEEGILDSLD
Briefly: Kd of knob for CD46; method not stated.
With B1, the affinity, expressed as Kd, was 11.2 nM.
In the case of B2 it was 13.7 nM; in that of B3, 15 nM.
